Drawing on article PMC10954664, this text covers stoichiometry N for one substance.

This experiment concerns the target Cysless ATL1_(cyto)-K400C (human) (UniProt Q8WXF7). Description: single-molecule photobleaching step counting (TIRF); LD655-labelled, biotinylated ATL1cyto-K mixed at ~2 μM with 1 mM GTPγS or GDP/AlF4-, diluted and immobilised (~0.3 nM) in a streptavidin-coated microfluidic chamber.

A word on the stoichiometry N: it is a count of units in the complex or per binding partner. The substance “Cysless ATL1_(cyto)-K400C (from UniProt Q8WXF7 1-447) (domain or fragment)” registered a stoichiometry N of 2.
